From paper PMC4385108, “Characterization of the Kluyveromyces marxianus strain DMB1 YGL157w gene product as a broad specificity NADPH-dependent aldehyde reductase” (AMB Express, 2015) come the findings set out here.

Substrate in data set [1]: CC(=O)C=O
Put plainly: purified protein. It is filed as biochemical, Kluyveromyces marxianus. As to conditions: 100 mM acetate pH 5.5, 25°C, 0.2 mM NADPH.

Substrate in data set [2]: NC(=O)C1=CN([C@@H]2O[C@H](COP(=O)(O)OP(=O)(O)OC[C@H]3O[C@@H](n4cnc5c(N)ncnc54)[C@H](OP(=O)(O)O)[C@@H]3O)[C@@H](O)[C@H]2O)C=CC1
The experiment in a line: purified protein. It counts as biochemical, Kluyveromyces marxianus. As to conditions: 100 mM acetate pH 5.5, 25°C, co-substrate methylglyoxal (5 mM in the standard assay), kcat unit as printed, presumably min^−1, varied: cofactor.

B1: KmGRE2 (YGL157w gene product) (Kluyveromyces marxianus) (protein)
chain: MTYVVVTGASGYLAQHVIKQLLERNYKVIGTVRNQQKAKDIAKLFQNDNLTLELVPDLLQADVFDDLFLKYTGQIKHVIHTASPCRFDTTEYENEMLLPAINGTKRVLESIKKYASETVETVVYTSSVSALANPAGILDSNLTLTEESWNPDSFEDGKKDVFSAYYVSKTFAERTAWDFWKENKDQVKFQLTTICPSYIFGPQAFEENAKGTLNFSTEIVNKILHSKPGDELDKNFAGAFVDVRDVARAHVLALEKPELKSKRLVLLNDVYALQDVADYINKHFPELRGKIATGVPGEGKEIVKYIAHYDNSKTKKLLGFEFISFGQAITDTVAQILKANN
notes: monomer, about 36 kDa by gel filtration, 40 kDa by SDS-PAGE
Take B1: in the data set “purified protein [1]”, the Km stood at 0.30 ± 0.018 mM and the kcat was 1.3 × 10^3 ± 15 min^−1. Besides, in “purified protein [2]”, the Km is recorded as 0.028 ± 0.0012 mM.
